Measurements reported in US20170138946A1 (Memorial Sloan Kettering, published 2017).

Molecular target: T1, Enhancer of zeste homolog 2 (EZH2) (human, UniProt Q15910 1-746, limits assumed)
T1 construct: Endogenous protein in SET2 cells
Assay: co-immunoprecipitation of endogenous EZH2 and BAP1 in SET2 cells with Western blot, in presence of benzonase
Text: FIG. 13A-L. BAP1 depletion leads to an increase in PRC2 component expression, increased H4K20me1 and deubiquitination of L3MBTL2. (a) Co-immunoprecipitation of endogenous EZH2 and BAP1 in SET2 cells followed by Western blot analysis (performed in presence of benzonase to inhibit interactions dependent on DNA). (b) Bap1, Ezh2 and Suz12 expression by qRT-PCR from sorted granulocyte-macrophage progenitor (GMP; Lin⁻ c-Kit⁺Sca1⁻CD34′Fcγ⁺). (c) Western blot analysis of Bap1 and Ezh2 in bone marrow cells from Bap1 KO and control mice. (d) H4K20me1 quantification from histone mass spectrometry experiments. (e) Cell viability as assessed by Cell Titer Glo viability assay and (f) Annexin V assays for SETD8 overexpression experiments in BAP1 wild-type (MSTO-211H, Meso10) and mutant cell lines H226, deletion; H2452 catalytic mutation). (g) Quantitative qPCR for SETD8 and EZH2 in BAP1 mutant cells with SETD8 overexpression. (h) Western blot analysis for SETD8 and EZH2 in a BAP1 wild-type cell line. (i) Cell Titer Glo assay in cells treated with DMSO or 5, 10, 20 μM BVT594. (j) L3MBTL2 and BAP1 expression in BAP1 wild-type (Met5a, JMN) and mutant mesothelioma cell lines (H226, H2452, H28). (k) 293T cells overexpressing Myc-His tagged ubiquitin and L3MBTL2 cDNA and varying levels of BAP1 (0, 5 μg, 2.5 μg, 1 μg). […] Statistics were calculated with Student t-test; *p<0.05, **p<0.005; ±SEM values reported. […]

T1 sequence (Q15910 whole entry): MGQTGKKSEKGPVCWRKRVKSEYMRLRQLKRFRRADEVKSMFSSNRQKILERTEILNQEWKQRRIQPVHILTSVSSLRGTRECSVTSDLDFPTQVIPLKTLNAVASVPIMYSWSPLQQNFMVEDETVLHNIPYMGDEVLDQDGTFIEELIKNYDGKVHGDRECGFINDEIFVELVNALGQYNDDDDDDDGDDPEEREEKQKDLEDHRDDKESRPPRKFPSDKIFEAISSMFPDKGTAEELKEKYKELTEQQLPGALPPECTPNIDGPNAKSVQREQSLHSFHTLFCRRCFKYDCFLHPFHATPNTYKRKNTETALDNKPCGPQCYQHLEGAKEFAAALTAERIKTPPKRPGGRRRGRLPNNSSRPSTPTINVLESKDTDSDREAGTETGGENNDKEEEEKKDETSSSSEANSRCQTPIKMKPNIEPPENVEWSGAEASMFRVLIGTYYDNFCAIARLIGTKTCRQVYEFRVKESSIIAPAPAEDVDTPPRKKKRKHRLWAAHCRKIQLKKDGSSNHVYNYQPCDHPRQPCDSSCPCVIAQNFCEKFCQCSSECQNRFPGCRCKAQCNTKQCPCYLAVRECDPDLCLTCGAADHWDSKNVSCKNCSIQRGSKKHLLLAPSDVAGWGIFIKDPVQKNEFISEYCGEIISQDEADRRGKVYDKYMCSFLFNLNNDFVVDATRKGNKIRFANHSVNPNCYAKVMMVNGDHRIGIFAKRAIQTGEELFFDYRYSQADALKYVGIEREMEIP

B1: BRCA1 associated protein-1 (BAP1) (enzyme, human, UniProt Q92560 1-729, looked up)
chain: MNKGWLELESDPGLFTLLVEDFGVKGVQVEEIYDLQSKCQGPVYGFIFLFKWIEERRSRRKVSTLVDDTSVIDDDIVNNMFFAHQLIPNSCATHALLSVLLNCSSVDLGPTLSRMKDFTKGFSPESKGYAIGNAPELAKAHNSHARPEPRHLPEKQNGLSAVRTMEAFHFVSYVPITGRLFELDGLKVYPIDHGPWGEDEEWTDKARRVIMERIGLATAGEPYHDIRFNLMAVVPDRRIKYEARLHVLKVNRQTVLEALQQLIRVTQPELIQTHKSQESQLPEESKSASNKSPLVLEANRAPAASEGNHTDGAEEAAGSCAQAPSHSPPNKPKLVVKPPGSSLNGVHPNPTPIVQRLPAFLDNHNYAKSPMQEEEDLAAGVGRSRVPVRPPQQYSDDEDDYEDDEEDDVQNTNSALRYKGKGTGKPGALSGSADGQLSVLQPNTINVLAEKLKESQKDLSIPLSIKTSSGAGSPAVAVPTHSQPSPTPSNESTDTASEIGSAFNSPLRSPIRSANPTRPSSPVTSHISKVLFGEDDSLLRVDCIRYNRAVRDLGPVISTGLLHLAEDGVLSPLALTEGGKGSSPSIRPIQGSQGSSSPVEKEVVEATDSREKTGMVRPGEPLSGEKYSPKELLALLKCVEAEIANYEACLKEEVEKRKKFKIDDQRRTHNYDEFICTFISMLAQEGMLANLVEQNISVRRRQGVSIGRLHKQRKPDRRKRSRPYKAKRQ
notes: Immunoprecipitated from cell lysates; It is endogenous in the human leukemia line SET2
B1: no binding.
